According to US20170260508A1:

Target: chimeric LILRB2-PILRβ receptor (aa 24-458 of hLILRB2) on mouse T cell hybridoma NFAT-GFP reporter cells (human), Q8N423
Assay: cell-based or functional assay

chimeric LILRB2-PILRβ receptor (aa 24-458 of hLILRB2) on mouse T cell hybridoma NFAT-GFP reporter cells (human), Q8N423, sequence (Q8N423 other isoform, or with tags, fused parts or gaps mutant limits assumed, form in doubt): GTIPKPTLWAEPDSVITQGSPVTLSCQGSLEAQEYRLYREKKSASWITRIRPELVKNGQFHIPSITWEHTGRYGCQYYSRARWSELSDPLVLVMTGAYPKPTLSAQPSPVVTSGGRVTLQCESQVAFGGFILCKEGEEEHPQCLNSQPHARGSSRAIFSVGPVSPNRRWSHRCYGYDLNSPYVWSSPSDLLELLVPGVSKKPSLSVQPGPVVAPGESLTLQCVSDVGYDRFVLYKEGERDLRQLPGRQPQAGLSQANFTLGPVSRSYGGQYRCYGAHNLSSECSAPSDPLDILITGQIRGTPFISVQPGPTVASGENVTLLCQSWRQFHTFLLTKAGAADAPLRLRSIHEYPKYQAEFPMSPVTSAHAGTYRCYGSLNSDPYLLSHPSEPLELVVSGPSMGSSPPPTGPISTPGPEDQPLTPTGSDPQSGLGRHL

B1: Angptl2-FLAG, full-length human Angptl2 secreted from transfected 293T cells, Q9UKU9 23-493 (ligand, not shown: small tags and cut ends)
chain: QEDGFEGTEEGSPREFIYLNRYKRAGESQDKCTYTFIVPQQRVTGAICVNSKEPEVLLENRVHKQELELLNNELLKQKRQIETLQQLVEVDGGIVSEVKLLRKESRNMNSRVTQLYMQLLHEIIRKRDNALELSQLENRILNQTADMLQLASKYKDLEHKYQHLATLAHNQSEIIAQLEEHCQRVPSARPVPQPPPAAPPRVYQPPTYNRIINQISTNEIQSDQNLKVLPPPLPTMPTLTSLPSSTDKPSGPWRDCLQALEDGHDTSSIYLVKPENTNRLMQVWCDQRHDPGGWTVIQRRLDGSVNFFRNWETYKQGFGNIDGEYWLGLENIYWLTNQGNYKLLVTMEDWSGRKVFAEYASFRLEPESEYYKLRLGRYHGNAGDSFTWHNGKQFTTLDRDHDVYTGNCAHYQKGGWWYNACAHSNLNGVWYRGGHYRSRYQDGVYWAEFRGGSYSLKKVVMMIRPNPNTFH
B1 showed a GFP expression of LILRB2 reporter cells after 24 h with Angptl2 conditioned medium (2 µg/ml); control: mock medium of 18.9%.
